“Also recorded” adds a separate entry of the source. One block for each sequence: values may come before it. Bridges are numbered along the chain shown (N, C = ends). Where no end group is shown, it is not given here.
Tests used:
Human MCP-1 = target: T1, Human MCP-1 (Homo sapiens, UniProt P13500); assay: ELISA analysis of the synthetic chemokine-binding peptide; details: chemokine-coated wells, specific binding = at least two fold of binding to control proteins (BSA, Actin, Fibronectin)
T1 construct: purchased PeproTech, Inc. 300-04
T1 sequence (P13500 24-99): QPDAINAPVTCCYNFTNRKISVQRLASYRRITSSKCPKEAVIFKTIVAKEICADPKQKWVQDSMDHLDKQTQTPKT
Protocol: (§1) Recombinant chemokines were ordered from PeproTech, Inc. (Rocky Hill, N.J., USA). Human SDF-1α (Cat. No. 300-28A), human MIG (Cat. No. 300-26) and human IL-8, (72 amino acids) (Cat. No. 200-08M), belong to the alpha-chemokines (C-X-C) family. Human MCP-1 (MCAF) (Cat. No. 300-04) and human Eotaxin (Cat No. 300-21) belong to the beta-chemokines (C-C family). All chemokines were prepared according to the company recommendations.
(§2) Peptides were synthesized in the Weizmann Institute of Science, Rehovot, Israel, in order to perform tests for characterization of their influence on the biological activity of the chemokines. The format of the various synthesized peptides was as follows: The cyclic peptides, ACX7CGGGSK-biotin-G and the linear peptides, X12GGGSK-biotin-G. The peptides were biotinylated on their C-termini; the biotin will serve as a detector during the following experiments. Each synthetic peptide was dissolved to concentration of 1 mg/ml (˜0.6 mM) in 4% DMSO (Dimethyl Sulphoxide, Sigma, Cat. # D-2650).
(§3) NUNC-Immuno™ MaxiSorp™ plates (Cat. No. 4-42404) were coated with the appropriate chemokine (0.1 ml/well, 0.1-1.0 μg/ml in 0.1 M NaHCO3, pH 8.6), overnight at 4° C. The plates were then blocked with 0.2 ml/well of blocking buffer (5 mg/ml BSA in 0.1 NaHCO3). Control wells were treated with blocking buffer alone, with no addition of target protein (chemokine). The plates were washed 6 times with PBST (0.1% Tween 20 in PBS), followed by incubation for 45 minutes at room temperature with 10-fold serial dilutions of individual synthetic peptides (10pg-10 μg) with 1% BSA (PBST-BSA)/well. After the plates were washed 6 times with PBST, the bound peptides were probed by HRP-SA Conjugate, diluted 1:10,000 to 1:20,000 in PBST-BSA, 0.1 ml/well for 45 minutes at room temperature. The target-bound synthetic peptides probed with HRP-SA were quantified by DAKO TMB one-step substrate system, followed by the addition of stop solution, HCl—H2SO4 mixture (0.1 ml/well) (1N HCl, 3N H2SO4). The results were analyzed by ELISA reader at OD450.
(§4) The present invention identifies chemokine-binding peptides with biological activity. The binding specificities of the various peptides to the chemokines were determined by screening against BSA, Actin and Fibronectin-coated wells as negative controls in parallel experiments. The binding level of the peptides to the various chemokines, which reached at least two fold of the binding level to the control proteins, was considered a specific binding.
(§5) The specific binding of the peptides was detected by screening methodology, using ELISA, as described in “Materials and Methods”, employing microplates coated with the various chemokines to be checked. The binding specificities of the various peptides to the various chemokines were determined by screening against BSA, Actin and Fibronectin-coated wells as negative controls in parallel experiments.
(§6) Again, the specificity of the binding, either to one chemokine or more, was established by comparing binding level with the control binding level to non-related proteins, (shown in the Figure as a broken line).

MIG [1] = target: T2, MIG (Homo sapiens, UniProt Q07325); assay: as above; details: chemokine-coated wells, specific binding = at least two fold of binding to control proteins (BSA, Actin, Fibronectin)
T2 construct: purchased PeproTech, Inc. 300-26
T2 sequence (Q07325 23-125): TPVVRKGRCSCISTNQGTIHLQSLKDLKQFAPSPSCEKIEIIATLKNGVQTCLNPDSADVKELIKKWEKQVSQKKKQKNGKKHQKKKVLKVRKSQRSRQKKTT
Protocol: as §1, §2, §3, §4, §5, §6

MIG [2] = target: T2, MIG; assay: Biovalidation: laminar flow assay, chemokine and VCAM-1 activated adhesion of T cells; format: cell-based; details: for Reduction of the activity of MIG: T cell adhesion under flow
Protocol: 50 ml blood was added to 10 ml Dextran (Dextran T-500 6% w/v) in PBS (phosphate buffer saline), and 7 ml citrate buffer (25 g citrate, 8 g citric acid in 500 ml PBS). The solution was incubated for 30 min at 25° C. 10 ml Ficoll 1077 (Sigma) was added to the bottom of the tube. The tube was then centrifuged at 2,000 rpm for 30 min, at 18° C., (with the brake mode of the centrifuge off). The interphase was collected and washed twice with 8 ml PBS-5% FCS (fetal calf serum), followed by centrifugation at 1,400 rpm, for 5 min, at 18° C. The cells were re-suspended in PBS-5% FCS at a concentration less than 10^8/ml. 2 ml of the cell solution were applied and incubated for 45 min at 25° C. on a Perspex Nylon wool column, which was pre-soaked with PBS-5% FCS. Each column was washed with 8 ml PBS-5% FCS and the cells (T-cells and erythrocytes) were eluted by 50 ml of 5 mM EDTA in PBS. A red pellet was obtained by centrifugation at 1,400 rpm, at 4° C., for 5 min, with the brake on. In order to perform lysis of the erythrocytes, the red pellet was re-suspended in 5 ml lysis-buffer (155 mM NH4Cl, 10 mM KHCO3, 0.1 mM EDTA, X0.1PBS) for 4 min, followed by immediate addition of 50 ml of PBS-EDTA.
Following centrifugation at 1,400 rpm, at 4° C., for 5 min with brake on, the pellet was washed again with 50 ml PBS-EDTA and re-centrifuged under the same conditions. A white pellet was obtained and re-suspended in RPMI/10% FCS/L-glutamine/sodium pyruvate/antibiotics at a concentration of 3^X10^6 cells/ml. The cells were incubated for 2 h at 37° C., followed by collection of the non-adherent cells. The cells were ready for use in experiments after overnight incubation at 37° C. […]
Laminar flow assays were performed as follows. Polystyrene plates (B.D) were coated with soluble VCAM-1 at 10 μg/ml in the presence of 2 μg/ml HSA carrier. The plates were washed three times with PBS and blocked with HSA (20 μg/ml in PBS) for 2 hrs at room temperature. Alternatively, washed plates were coated with 10 μg/ml MIG chemokine in PBS for 30 min at room temperature, before being blocked with HSA. The plates were assembled as the lower wall of a parallel wall flow chamber and mounted on the stage of an inverted microscope. The peptide, as described previously, (10 μg/ml) was allowed to settle on the substrate coated chamber wall for 10 min, at 37° C. and then washed. T cells (5×10^6/ml, purity >98%) were suspended in binding buffer, perfused into the chamber and allowed to settle on the substrate coated chamber wall for 1 min, at 37° C. Flow was initiated and increased in 2 to 2.5 fold increments every 5 sec. generating controlled shear stresses on the wall. Cells were visualized in a 20× objective of an inverted phase-contrast Diaphot Microscope (Nikon, Japan) and photographed with a long integration LIS-700 CCD video camera (Applitech; Holon, Israel), connected to a video recorder (AG-6730 S-VHS, Panasonic, Japan). The number of adherent cells resisting detachment by the elevated shear forces was determined after each interval by analysis of videotaped cell images, and was expressed as the percent of originally settled cells. All adhesion experiments were performed at least three times on multiple test fields.

SDF-1α = target: T3, SDF-1α (Homo sapiens, UniProt P48061); assay: ELISA analysis of the synthetic chemokine-binding peptide; details: chemokine-coated wells, specific binding = at least two fold of binding to control proteins (BSA, Actin, Fibronectin)
T3 construct: purchased PeproTech, Inc. 300-28A
T3 sequence (P48061 22-89 limits assumed): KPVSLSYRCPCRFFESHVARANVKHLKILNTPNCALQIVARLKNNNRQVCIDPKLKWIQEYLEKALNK
Protocol: as §1, §2, §3, §4, §5, §6

[3] = test system: chemokines MCP-1, SDF-1α, MIG, Eotaxin and IL-8; assay: ELISA binding to the panel of chemokines (chemokine not singled out); parameters: species or system human; details: five chemokines tested, control binding level = one fold
Protocol: as §1, §2, §3
The present invention identifies chemokine-binding peptides with biological activity. The binding specificities of the various peptides to the chemokines were determined by screening against BSA, Actin and Fibronectin-coated wells as negative controls in parallel experiments. […]
The specific binding of the peptides was detected by screening methodology, using ELISA, as described in “Materials and Methods”, employing microplates coated with the various chemokines to be checked. The binding specificities of the various peptides to the various chemokines were determined by screening against BSA, Actin and Fibronectin-coated wells as negative controls in parallel experiments. […]

Eotaxin = target: T4, Eotaxin (Homo sapiens, UniProt P51671); assay: ELISA analysis of the synthetic chemokine-binding peptide; details: chemokine-coated wells, specific binding = at least two fold of binding to control proteins (BSA, Actin, Fibronectin)
T4 construct: purchased PeproTech, Inc. 300-21
Protocol: as §1, §2, §3, §4, §5, §6

human IL-8 = target: T5, human IL-8 (Homo sapiens, UniProt P10145); assay: as above; details: chemokine-coated wells, specific binding = at least two fold of binding to control proteins (BSA, Actin, Fibronectin)
T5 construct: human IL-8, (72 amino acids) (Cat. No. 200-08M); purchased PeproTech, Inc. 200-08M
T5 sequence (P10145 28-99 limits assumed): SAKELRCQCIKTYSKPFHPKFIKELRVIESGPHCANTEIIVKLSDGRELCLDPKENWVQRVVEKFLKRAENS
Protocol: as §1, §2, §3, §4, §5, §6

IL-8 = target: T6, IL-8 (Homo sapiens, UniProt P10145); assay: Biovalidation: laminar flow assay, chemokine and VCAM-1 activated adhesion of T cells; format: cell-based; details: VCAM-1
T6 construct: human IL-8, (72 amino acids) (Cat. No. 200-08M); purchased PeproTech, Inc. 200-08M
T6 sequence (P10145 28-99): T5 sequence (P10145 28-99 limits assumed)

Bound chemokines (at least): MCP-1 (Human MCP-1): MCP-1
Sequence: ACHASLKHRC [BKT-P48]

Bound chemokines (at least): MCP-1 (Human MCP-1): MCP-1
Sequence: AHSLKSITNHGL [BKT-P44]

Bound chemokines (at least): MIG (MIG [1]): MIG
Sequence: CAHLSPHKC [BKT-P50]

Bound chemokines (at least): MIG (MIG [1]): does not bind
Percentage of arrested cells (MIG [2]; MIG plus peptide (FIG. 4), MIG alone about 25-30%, control = VCAM-1 alone): 25%-30%
Reduction of the activity of MIG (MIG [2]; VCAM-1): no influence on the activity of MIG
Sequence: CDIPWRNEC [BKT-P10]

Bound chemokines (at least): SDF-1α (SDF-1α): SDF-1α
Sequence: CHHNLSWEC [BKT-P56]

Binding to the various chemokines [3]: no binding to the various chemokines
Sequence: CKESATYFC (ACKESATYFCGGGS-{K(biotin)-Gly}; disulfide 2-10 (inferred)) [BKT-P18]

Bound chemokines (at least): MCP-1 (Human MCP-1): MCP-1
Sequence: ESDLTHALHWLG [BKT-P51]

Sequence: FSMDDPERVRSP [BKT-P9]
Binding to the various chemokines [3]: bind specifically to a single chemokine; also recorded: specifically bind to one specific chemokine

Bound chemokines (at least): MCP-1 (Human MCP-1): MCP-1
Sequence: GDFNSGHHTTTR [BKT-P27]

Bound chemokines (at least): Eotaxin (Eotaxin): Eotaxin
Sequence: GVHKHFYSRWLG [BKT-P33]

Bound chemokines (at least): MCP-1 (Human MCP-1): MCP-1
Bound chemokines (at least): MIG (MIG [1]): MIG
Bound chemokines (at least): IL-8 (human IL-8): IL-8
Level of Antagonistic Effect (MIG [2]; Chemokine checked MIG, T cells, VCAM-1, peptide 10 μg/ml): + (+ 20%)
Reduction of the activity of MIG (MIG [2]; VCAM-1): about 20%
Level of Antagonistic Effect (IL-8; Chemokine checked IL-8, T cells, peptide 10 μg/ml): +++ (+++ 100%)
Abolishment of the activity of IL-8 (IL-8; T cell adhesion under flow): 100%
Sequence: HHFHLPKLRPPV [BKT-P45]

Bound chemokines (at least): MCP-1 (Human MCP-1): MCP-1
Sequence: HHTWDTRIWQAF [BKT-P55]

Bound chemokines (at least): MIG (MIG [1]): MIG
Sequence: HPTTPFIHMPNF (HPTTPIHMPNF) [BKT-P54]

Bound chemokines (at least): MCP-1 (Human MCP-1): MCP-1
Sequence: HSACHASLKHRC [BKT-P49]

From patent US8796227B2, “Peptides for inhibiting chemokine binding to chemokine receptors” (Biokine Therapeutics Ltd., priority 2002, dated 2014)
